We go through 1 molecule from PMC10465447, “Magnetically controlled graphene field-effect transistor biosensor for highly sensitive detection of cardiac troponin I”.

In the data set the target is cardiac troponin I (CTNI) (UniProt P19429 2-210). As to the kind of experiment: pull-down with anti-CTNI antibody magnetic beads, supernatant fluorescence; 2 uM aptamer (10 uL), 10 uM CTNI (100 uL); fluorescence about 1400 to 1050 A.U.; PBS pH 7.4 washes; binding buffer not stated; room temperature 2 h (solution pull-down); 30 min bead reaction on sensor. The settings on record: protein: commercial; label: 3'-6-FAM.
Chain of cardiac troponin I (CTNI) (P19429 2-210): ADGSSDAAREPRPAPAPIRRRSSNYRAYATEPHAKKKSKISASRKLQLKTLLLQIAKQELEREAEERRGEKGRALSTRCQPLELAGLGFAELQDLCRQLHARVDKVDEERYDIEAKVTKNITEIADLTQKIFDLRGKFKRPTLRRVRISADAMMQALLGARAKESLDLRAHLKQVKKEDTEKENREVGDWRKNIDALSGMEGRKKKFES

B1: CTNI aptamer (ssDNA)
DNA: CGTGCAGTACGCCAACCTTTCTCATGCGCTGCCCCTCTTA
modifications: 5'-NH2
In the case of B1, the binding result was “binds”.
